Our source for the reflectance signal values is patent US20060024724A1.

The target in the assay is oncofetal fibronectin (human) (UniProt P02751). The experiment in a line: lateral-flow sandwich test strip (mobile FDC-6 conjugate, goat polyclonal anti-fibronectin capture), TLiIQ reflectance reader, at 50 ng/ml oncofetal fibronectin.
Sequence of UniProt P02751 (P02751 32-2477): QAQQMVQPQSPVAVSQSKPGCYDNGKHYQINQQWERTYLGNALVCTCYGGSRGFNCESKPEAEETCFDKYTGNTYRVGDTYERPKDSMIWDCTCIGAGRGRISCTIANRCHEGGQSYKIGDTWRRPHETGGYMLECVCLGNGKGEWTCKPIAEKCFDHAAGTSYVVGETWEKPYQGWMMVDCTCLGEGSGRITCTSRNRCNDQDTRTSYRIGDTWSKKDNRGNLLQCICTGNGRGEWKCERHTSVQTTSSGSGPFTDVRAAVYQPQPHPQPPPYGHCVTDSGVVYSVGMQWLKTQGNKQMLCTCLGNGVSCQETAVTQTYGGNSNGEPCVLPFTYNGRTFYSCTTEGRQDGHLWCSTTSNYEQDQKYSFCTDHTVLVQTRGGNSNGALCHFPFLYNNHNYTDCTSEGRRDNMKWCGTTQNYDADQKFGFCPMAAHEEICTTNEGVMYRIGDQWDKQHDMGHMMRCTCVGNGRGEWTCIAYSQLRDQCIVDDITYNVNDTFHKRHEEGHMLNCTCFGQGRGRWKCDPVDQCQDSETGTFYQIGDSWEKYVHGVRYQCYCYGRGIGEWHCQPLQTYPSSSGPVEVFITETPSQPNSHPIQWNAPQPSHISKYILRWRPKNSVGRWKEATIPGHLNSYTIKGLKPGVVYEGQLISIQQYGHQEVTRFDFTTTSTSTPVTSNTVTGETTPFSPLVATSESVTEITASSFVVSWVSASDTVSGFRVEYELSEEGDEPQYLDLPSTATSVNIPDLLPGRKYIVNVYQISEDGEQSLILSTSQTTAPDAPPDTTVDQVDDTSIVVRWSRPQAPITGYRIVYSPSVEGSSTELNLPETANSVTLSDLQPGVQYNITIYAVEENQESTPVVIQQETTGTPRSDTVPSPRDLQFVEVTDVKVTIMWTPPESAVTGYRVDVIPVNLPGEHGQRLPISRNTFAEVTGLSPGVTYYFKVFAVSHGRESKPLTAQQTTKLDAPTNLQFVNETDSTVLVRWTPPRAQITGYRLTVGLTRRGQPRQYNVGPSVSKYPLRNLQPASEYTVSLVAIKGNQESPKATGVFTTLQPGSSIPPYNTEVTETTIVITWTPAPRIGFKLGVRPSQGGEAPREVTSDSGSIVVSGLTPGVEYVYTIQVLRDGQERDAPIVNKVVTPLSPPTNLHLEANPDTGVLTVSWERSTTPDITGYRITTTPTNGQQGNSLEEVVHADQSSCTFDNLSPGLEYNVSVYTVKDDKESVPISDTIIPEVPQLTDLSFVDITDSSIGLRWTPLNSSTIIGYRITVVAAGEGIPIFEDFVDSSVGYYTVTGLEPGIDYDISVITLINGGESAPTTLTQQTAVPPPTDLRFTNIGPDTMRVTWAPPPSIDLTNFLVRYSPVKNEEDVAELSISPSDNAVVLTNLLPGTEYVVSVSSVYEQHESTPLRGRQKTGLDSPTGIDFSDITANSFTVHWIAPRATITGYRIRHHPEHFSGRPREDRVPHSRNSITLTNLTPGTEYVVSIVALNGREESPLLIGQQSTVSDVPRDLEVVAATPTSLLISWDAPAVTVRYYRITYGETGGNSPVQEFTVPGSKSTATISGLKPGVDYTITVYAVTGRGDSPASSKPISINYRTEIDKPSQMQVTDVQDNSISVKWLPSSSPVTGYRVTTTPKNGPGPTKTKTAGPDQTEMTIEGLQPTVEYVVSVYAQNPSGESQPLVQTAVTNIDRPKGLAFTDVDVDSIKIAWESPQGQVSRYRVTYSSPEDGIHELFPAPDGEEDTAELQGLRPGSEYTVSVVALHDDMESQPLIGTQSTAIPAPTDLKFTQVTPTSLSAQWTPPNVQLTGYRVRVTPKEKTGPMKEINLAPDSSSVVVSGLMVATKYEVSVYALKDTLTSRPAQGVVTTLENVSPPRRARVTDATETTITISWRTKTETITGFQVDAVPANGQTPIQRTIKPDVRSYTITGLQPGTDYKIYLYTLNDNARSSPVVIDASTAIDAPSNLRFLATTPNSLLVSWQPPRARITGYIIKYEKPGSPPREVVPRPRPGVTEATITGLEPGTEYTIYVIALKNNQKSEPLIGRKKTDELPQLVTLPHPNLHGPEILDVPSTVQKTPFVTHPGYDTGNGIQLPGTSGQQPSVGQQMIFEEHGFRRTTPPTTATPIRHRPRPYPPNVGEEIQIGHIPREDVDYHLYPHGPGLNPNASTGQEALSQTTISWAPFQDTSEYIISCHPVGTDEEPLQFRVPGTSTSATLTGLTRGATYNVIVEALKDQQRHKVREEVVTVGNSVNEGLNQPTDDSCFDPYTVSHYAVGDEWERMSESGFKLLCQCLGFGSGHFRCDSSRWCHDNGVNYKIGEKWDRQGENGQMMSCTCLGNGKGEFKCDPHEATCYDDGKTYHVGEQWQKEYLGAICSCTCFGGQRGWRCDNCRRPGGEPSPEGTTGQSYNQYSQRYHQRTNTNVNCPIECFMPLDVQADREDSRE

“FDC-6 monoclonal antibody (produced by hybridoma ATCC HB 9018)” showed a reflectance signal of 0.315.
